What was measured:
Assay in all cases: cell_activity; CHO extrachromosomal SSA assay
[1] = molecular target: T1, I-CreI heterodimer Mt 3B + Mt 4A (Chlamydomonas reinhardtii (engineered), UniProt P05725;P05725 SEQ:1-167,SEQ:1-167)
T1 chain 1: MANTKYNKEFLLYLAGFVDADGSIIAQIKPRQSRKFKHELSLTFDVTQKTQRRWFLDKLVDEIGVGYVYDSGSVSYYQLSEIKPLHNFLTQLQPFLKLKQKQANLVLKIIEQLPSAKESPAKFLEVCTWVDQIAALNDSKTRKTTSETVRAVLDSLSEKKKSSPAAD
T1 chain 2: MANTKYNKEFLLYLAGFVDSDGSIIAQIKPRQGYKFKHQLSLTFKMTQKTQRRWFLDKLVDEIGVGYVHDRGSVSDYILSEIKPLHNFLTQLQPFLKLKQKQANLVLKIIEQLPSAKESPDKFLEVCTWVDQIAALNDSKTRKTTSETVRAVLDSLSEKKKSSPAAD
Procedure: (§1) CHO cells were transfected with Polyfect® transfection reagent according to the supplier's protocol (QIAGEN). 72 hours after transfection, the level of Beta galactosidase expression for each transfection was quantified using the Beta-Glo® Assay System (Promega). The Beta-Glo Assay contains a luciferin-galactoside substrate (6-O-β-galactopyranosylluciferin) that can be cleaved by β-galactosidase to form luciferin that is then utilized in a firefly luciferase reaction to generate light. For each transfection, approximately 100,000 cells in 100 μl of medium were combined with an equal volume of Beta-Glo lysis/revelation buffer as described by the manufacturer (Promega). After 30 minutes of incubation at room temperature, signal was measured with a luminometer (Perkin Elmer Victor multilabel plate reader).
(§2) Several variants described in examples 3, 5, 6, 7 and 8 were first recloned in pCLS1768 (FIG. 16). Then, in order to identify the heterodimer displaying the maximal cleavage activity with the GSCHO1 target in CHO cells, I-CreI variants cleaving the GSCHO1.3 or GSCHO1.4 targets (described in examples 3, 5, 6, 7 and 8) were tested together as heterodimers against the GSCHO1 target in the CHO extrachromosomal assay.

[2] = molecular target: T2, I-CreI heterodimer Mt 3B + Mt 4C (Chlamydomonas reinhardtii (engineered), UniProt P05725;P05725 SEQ:1-167,SEQ:1-167)
T2 chain 1: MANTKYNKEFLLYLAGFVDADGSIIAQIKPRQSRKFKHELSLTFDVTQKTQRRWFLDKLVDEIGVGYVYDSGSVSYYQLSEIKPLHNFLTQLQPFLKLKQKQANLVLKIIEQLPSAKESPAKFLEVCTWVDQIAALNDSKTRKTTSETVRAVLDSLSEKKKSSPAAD
T2 chain 2: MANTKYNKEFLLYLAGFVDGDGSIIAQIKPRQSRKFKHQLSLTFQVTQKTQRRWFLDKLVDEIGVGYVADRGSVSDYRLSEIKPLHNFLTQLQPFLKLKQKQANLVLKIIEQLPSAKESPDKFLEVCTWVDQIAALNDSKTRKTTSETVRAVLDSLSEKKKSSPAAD
Procedure: as §1, §2

[3] = molecular target: T3, I-CreI heterodimer Mt 3A + Mt 4A (Chlamydomonas reinhardtii (engineered), UniProt P05725;P05725 SEQ:1-167,SEQ:1-167)
T3 chain 1: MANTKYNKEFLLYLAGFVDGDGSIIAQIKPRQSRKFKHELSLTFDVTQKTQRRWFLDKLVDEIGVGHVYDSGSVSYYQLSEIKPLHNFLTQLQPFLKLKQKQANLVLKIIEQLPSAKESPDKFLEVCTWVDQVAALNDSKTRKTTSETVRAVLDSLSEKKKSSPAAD
T3 chain 2: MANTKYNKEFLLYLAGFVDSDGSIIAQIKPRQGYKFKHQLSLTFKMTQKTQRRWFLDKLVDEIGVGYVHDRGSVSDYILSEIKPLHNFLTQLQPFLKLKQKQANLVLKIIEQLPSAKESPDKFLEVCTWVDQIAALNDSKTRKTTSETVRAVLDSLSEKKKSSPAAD
Procedure: as §1, §2

[4] = molecular target: T4, I-CreI heterodimer Mt 3A + Mt 4D (Chlamydomonas reinhardtii (engineered), UniProt P05725;P05725 SEQ:1-167,SEQ:1-167)
T4 chain 1: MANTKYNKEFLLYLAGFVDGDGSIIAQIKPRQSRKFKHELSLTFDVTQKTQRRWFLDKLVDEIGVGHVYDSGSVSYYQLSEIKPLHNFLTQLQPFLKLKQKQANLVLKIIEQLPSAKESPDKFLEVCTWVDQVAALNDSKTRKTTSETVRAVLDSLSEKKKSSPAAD
T4 chain 2: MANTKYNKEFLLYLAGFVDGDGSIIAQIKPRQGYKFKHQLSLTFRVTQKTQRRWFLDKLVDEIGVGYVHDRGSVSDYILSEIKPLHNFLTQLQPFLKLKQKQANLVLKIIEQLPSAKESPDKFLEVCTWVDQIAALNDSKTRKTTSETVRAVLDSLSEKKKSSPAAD
Procedure: as §1, §2

[5] = molecular target: T5, I-CreI heterodimer Mt 3C + Mt 4D (Chlamydomonas reinhardtii (engineered), UniProt P05725;P05725 SEQ:1-167,SEQ:1-167)
T5 chain 1: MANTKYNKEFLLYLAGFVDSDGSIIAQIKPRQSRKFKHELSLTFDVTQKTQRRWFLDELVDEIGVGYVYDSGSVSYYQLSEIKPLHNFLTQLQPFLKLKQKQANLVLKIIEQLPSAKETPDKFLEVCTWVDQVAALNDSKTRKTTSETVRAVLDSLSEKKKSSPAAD
T5 chain 2: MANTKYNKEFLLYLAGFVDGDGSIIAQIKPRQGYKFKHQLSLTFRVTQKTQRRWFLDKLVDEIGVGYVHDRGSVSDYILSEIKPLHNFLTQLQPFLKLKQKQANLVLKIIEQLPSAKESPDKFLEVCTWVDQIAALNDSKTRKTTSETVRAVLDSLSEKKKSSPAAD
Procedure: as §1, §2

[6] = molecular target: T6, I-CreI heterodimer Mt 3A + Mt 4C (Chlamydomonas reinhardtii (engineered), UniProt P05725;P05725 SEQ:1-167,SEQ:1-167)
T6 chain 1: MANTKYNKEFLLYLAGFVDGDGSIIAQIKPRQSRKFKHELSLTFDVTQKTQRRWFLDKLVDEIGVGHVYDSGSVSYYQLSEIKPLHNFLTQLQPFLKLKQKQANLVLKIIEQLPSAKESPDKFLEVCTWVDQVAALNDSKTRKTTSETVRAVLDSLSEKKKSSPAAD
T6 chain 2: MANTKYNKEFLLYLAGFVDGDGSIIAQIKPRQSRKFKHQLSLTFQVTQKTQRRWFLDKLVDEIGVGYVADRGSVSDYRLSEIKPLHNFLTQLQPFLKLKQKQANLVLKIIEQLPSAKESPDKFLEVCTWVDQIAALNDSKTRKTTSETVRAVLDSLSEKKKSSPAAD
Procedure: as §1, §2

[7] = molecular target: T7, I-CreI heterodimer Mt 3C + Mt 4B (Chlamydomonas reinhardtii (engineered), UniProt P05725;P05725 SEQ:1-167,SEQ:1-167)
T7 chain 1: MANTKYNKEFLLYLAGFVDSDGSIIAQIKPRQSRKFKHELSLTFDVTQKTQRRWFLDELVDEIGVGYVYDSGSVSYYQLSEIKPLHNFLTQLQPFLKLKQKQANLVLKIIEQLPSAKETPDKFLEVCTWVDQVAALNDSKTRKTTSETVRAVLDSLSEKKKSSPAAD
T7 chain 2: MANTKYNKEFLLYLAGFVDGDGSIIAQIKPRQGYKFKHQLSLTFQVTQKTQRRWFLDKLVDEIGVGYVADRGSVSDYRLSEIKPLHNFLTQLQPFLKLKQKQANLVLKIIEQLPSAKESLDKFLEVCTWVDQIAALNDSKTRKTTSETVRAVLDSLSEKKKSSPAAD
Procedure: as §1, §2

[8] = molecular target: T8, I-CreI heterodimer Mt 3B + Mt 4D (Chlamydomonas reinhardtii (engineered), UniProt P05725;P05725 SEQ:1-167,SEQ:1-167)
T8 chain 1: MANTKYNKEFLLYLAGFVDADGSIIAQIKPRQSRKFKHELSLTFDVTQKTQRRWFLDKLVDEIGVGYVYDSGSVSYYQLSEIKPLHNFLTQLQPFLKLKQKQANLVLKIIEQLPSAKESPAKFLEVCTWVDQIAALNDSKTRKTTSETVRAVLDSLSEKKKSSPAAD
T8 chain 2: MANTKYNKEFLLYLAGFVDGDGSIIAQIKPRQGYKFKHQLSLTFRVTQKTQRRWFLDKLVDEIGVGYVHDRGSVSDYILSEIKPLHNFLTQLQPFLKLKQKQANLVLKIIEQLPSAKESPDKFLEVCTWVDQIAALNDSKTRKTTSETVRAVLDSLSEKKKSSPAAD
Procedure: as §1, §2

[9] = molecular target: T9, I-CreI heterodimer Mt 3A + Mt 4B (Chlamydomonas reinhardtii (engineered), UniProt P05725;P05725 SEQ:1-167,SEQ:1-167)
T9 chain 1: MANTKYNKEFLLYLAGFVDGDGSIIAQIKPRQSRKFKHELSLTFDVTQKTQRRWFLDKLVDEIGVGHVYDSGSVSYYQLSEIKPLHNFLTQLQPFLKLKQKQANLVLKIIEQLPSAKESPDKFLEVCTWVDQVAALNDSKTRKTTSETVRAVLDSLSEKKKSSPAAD
T9 chain 2: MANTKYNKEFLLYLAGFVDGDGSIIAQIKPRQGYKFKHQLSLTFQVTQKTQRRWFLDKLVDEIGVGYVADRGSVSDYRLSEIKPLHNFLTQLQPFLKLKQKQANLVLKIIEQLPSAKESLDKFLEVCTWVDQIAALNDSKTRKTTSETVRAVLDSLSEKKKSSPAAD
Procedure: as §1, §2

[10] = molecular target: T10, I-CreI heterodimer Mt 3B + Mt 4B (Chlamydomonas reinhardtii (engineered), UniProt P05725;P05725 SEQ:1-167,SEQ:1-167)
T10 chain 1: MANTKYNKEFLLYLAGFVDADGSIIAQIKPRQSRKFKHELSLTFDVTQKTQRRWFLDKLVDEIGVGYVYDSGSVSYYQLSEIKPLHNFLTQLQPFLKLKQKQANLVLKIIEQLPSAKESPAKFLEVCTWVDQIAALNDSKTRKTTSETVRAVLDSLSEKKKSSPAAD
T10 chain 2: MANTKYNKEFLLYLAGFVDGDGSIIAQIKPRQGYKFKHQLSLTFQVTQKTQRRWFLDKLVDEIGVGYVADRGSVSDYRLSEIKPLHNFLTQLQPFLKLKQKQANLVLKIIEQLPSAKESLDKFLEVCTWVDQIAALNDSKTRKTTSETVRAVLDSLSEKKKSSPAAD
Procedure: as §1, §2

[11] = molecular target: T11, I-CreI heterodimer Mt 3C + Mt 4C (Chlamydomonas reinhardtii (engineered), UniProt P05725;P05725 SEQ:1-167,SEQ:1-167)
T11 chain 1: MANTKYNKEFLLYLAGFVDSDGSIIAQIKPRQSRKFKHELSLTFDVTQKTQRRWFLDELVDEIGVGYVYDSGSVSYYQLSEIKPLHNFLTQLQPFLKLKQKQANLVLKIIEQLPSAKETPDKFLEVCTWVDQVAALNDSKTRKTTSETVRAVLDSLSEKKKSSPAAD
T11 chain 2: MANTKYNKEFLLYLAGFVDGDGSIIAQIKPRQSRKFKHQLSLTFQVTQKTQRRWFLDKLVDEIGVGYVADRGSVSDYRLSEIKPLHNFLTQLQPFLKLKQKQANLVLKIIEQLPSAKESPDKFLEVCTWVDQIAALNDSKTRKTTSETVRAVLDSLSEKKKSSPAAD
Procedure: as §1, §2

B1: GSCHO1 (dsDNA)
DNA 1: TGGCATACAAGTTTCTGCCCCAGGGTGAGAAAGTCCAACAATCGTCTGTCA
DNA 2: TGACAGACGATTGTTGGACTTTCTCACCCTGGGGCAGAAACTTGTATGCCA
**Q.** What does the source list for B1?
**A.** activity [1]: 500000 luminescence units; activity [2]: 3.1e+06 luminescence units; activity [3]: 2.8e+06 luminescence units; activity [4]: 2.5e+06 luminescence units; activity [5]: 2.4e+06 luminescence units; activity [6]: 2e+06 luminescence units; activity [7]: 2.8e+06 luminescence units; activity [8]: 3.1e+06 luminescence units; activity [9]: 2.3e+06 luminescence units; activity [10]: 3.1e+06 luminescence units; activity [11]: 2.9e+06 luminescence units
